Reference: patent US9611296B2, “Peptides that bind to amino-truncated amyloid-beta-peptide and use of said peptides” (FORSCHUNGSZENTRUM JUELICH GMBH, priority 2012, dated 2017)
Square brackets hold non-standard residues; d marks the D form. Ends that are not written are not given here.

Target: T1, Aβ plaques (Homo sapiens, UniProt P05067)
T1 construct: have an increased Aβ 1-42 expression and plaque formation; from tissue; host or cells: frontal brain slices of transgenic Tg2576 mice aged 10 to 11 months
T1 sequence (P05067 672-713 limits assumed): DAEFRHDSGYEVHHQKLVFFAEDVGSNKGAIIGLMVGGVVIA
Experiment: Ex vivo histological staining of plaques in frontal brain slices of transgenic Tg2576 mice with FITC-labelled D-peptides (fluorescence microscopy, Congo red control)
Type: binding
Details: frontal brain slices (cortex) of Tg2576 mice aged 10 to 11 months; for region of the plaques stained (more intensely): FITC-labelled peptide
From the text: The binding properties of the available peptides to Aβ plaques were investigated. For staining frontal brain slices, use was made of preparations of transgenic Tg2576 mice aged from 10 to 11 months, which due to the human APP gene bearing the Swedish mutation have an increased Aβ 1-42 expression and plaque formation. In these mice, it was also possible to detect AβpE3-x as a plaque constituent.
For the tests, the peptides were synthetically produced and labelled by a commercial supplier, A test was then carried out, ex vivo, to determine the regions of the plaques to which binding had mainly taken place. It must be assumed here that Aβ plaques consist of different Aβ species, such as, for example, Aβ1-40, 1-42 and AβpE3-x.
All the peptides are combined with fluorescein isothiocyanate (FITC) for detection by means of fluorescence microscopy.
As a further control, the same tests were carried out after Congo red staining, which served to verify the plaque structures (bottom image in each case). It must be assumed that the plaques are composed of different Aβ isoforms (Aβ 1-40, 1-42, AβpE3-x). Slices from wild-type animals without plaque formation were also treated. In these tests, no Congo red or fluorescein fluorescence could be detected (data not shown).

Sequence	region of the plaques stained (more intensely)	type of plaques stained by the peptide
AGERLKFIDEHV ([dA]G[dE][dR][dL][dK][dF][dI][dD][dE][dH][dV]) [D6]	ring-shaped structures around the inner core of the plaques were stained more intensely	only plaques having a relatively dense structure, consisting of Aβ fibrils, were stained, but not small and diffuse plaques
HTRFEYYVYHMS ([dH][dT][dR][dF][dE][dY][dY][dV][dY][dH][dM][dS]) [D7]	at the inner core of the plaques	stained only dense structures
KMEHPNHPPPQR ([dK][dM][dE][dH][dP][dN][dH][dP][dP][dP][dQ][dR]) [D4, dodecameric D-peptide selected by mirror image phage display against aggregation-nucleus-free AβpE3-x]	ring-shaped structures around the inner core of the plaques were stained more intensely	only plaques having a relatively dense structure, consisting of Aβ fibrils, were stained, but not small and diffuse plaques
NGAPNKIPRDRE ([dN]G[dA][dP][dN][dK][dI][dP][dR][dD][dR][dE]) [D5, dodecameric D-peptide selected by mirror image phage display against aggregation-nucleus-free AβpE3-x]	ring-shaped structures around the inner core of the plaques were stained more intensely	only plaques having a relatively dense structure, consisting of Aβ fibrils, were stained, but not small and diffuse plaques
